Measured values taken from PMC6445466, “Structural determination of the complement inhibitory domain of Borrelia burgdorferi BBK32 provides insight into classical pathway complement evasion by Lyme disease spirochetes” (PLoS Pathogens, 2019).

How the values were obtained:
[1] = biological target: T1, His-C1r-CCP2-SP (residues 376-705) (human, UniProt P00736 376-705); test: SPR; Biacore T200, 25 °C, BBK32(206-348) immobilised; C1r fragments as analytes, single-cycle as for C1r, 0.8 to 500 nM; 1:1 Langmuir fit; conditions: both partners purified
T1 construct: complement C1r, human, CCP2-SP domains, residues 376-705 as defined by UniProt P00736
T1 sequence: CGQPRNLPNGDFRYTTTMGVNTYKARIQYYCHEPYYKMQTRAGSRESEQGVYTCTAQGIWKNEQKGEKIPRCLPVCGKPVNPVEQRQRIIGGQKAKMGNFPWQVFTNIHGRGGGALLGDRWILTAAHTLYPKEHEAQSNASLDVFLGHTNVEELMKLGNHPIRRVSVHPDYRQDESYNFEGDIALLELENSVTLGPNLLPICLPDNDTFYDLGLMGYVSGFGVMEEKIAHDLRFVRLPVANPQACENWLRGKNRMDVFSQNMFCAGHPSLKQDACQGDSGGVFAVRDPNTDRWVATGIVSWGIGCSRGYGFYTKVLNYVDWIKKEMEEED

[2] = biological target: T2, C1r_(CCP1-CCP2-SP-auto) (autolytic fragment of human C1r, Leu-300 to Asp-705) (human, UniProt P00736 300-705); test: as above; conditions: both partners purified
T2 construct: complement C1r, human, residues Leu-300 to Asp-705 by mass spectrometry: last six residues of CUB2 and all of CCP1-CCP2-SP; Runs as one 55 kDa band on non-reducing SDS-PAGE; also called 55 kDa band; autolytic C1r fragment; source: autolytic digestion of bought purified C1r (Complement Tech) overnight at 37 °C; used in the digestion mix (SEC) and purified (SPR)
T2 sequence: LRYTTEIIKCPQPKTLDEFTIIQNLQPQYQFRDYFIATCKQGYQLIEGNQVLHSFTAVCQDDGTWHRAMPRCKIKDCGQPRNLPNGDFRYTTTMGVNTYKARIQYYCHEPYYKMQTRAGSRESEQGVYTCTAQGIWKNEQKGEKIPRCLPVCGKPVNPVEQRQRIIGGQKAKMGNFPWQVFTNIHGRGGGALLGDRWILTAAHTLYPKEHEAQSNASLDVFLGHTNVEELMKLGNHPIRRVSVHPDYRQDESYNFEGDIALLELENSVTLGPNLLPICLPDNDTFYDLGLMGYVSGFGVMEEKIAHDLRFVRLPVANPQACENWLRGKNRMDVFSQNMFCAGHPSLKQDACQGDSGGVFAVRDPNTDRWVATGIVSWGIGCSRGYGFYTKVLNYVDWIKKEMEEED

[3] = biological target: T3, C1r CCP1-CCP2-SP-auto, autolytic fragment of human C1r (Leu-300 to Asp-705) (human, UniProt P00736 300-705); test: SPR; Biacore T200, 25°C; BBK32(206-348) immobilised by amine coupling; C1r fragments as analytes, single-cycle kinetics as for C1r, 0.8 to 500 nM; 1:1 kinetic fit; triplicate; conditions: both partners purified
T3 construct: complement C1r, human, residues Leu-300 to Asp-705 by mass spectrometry: last six residues of CUB2 and the whole of CCP1-CCP2-SP; Migrates as one 55 kDa band on non-reducing SDS-PAGE; also called 55 kDa fragment; source: autolytic digestion of bought C1r (Complement Tech) overnight at 37°C, purified
T3 sequence: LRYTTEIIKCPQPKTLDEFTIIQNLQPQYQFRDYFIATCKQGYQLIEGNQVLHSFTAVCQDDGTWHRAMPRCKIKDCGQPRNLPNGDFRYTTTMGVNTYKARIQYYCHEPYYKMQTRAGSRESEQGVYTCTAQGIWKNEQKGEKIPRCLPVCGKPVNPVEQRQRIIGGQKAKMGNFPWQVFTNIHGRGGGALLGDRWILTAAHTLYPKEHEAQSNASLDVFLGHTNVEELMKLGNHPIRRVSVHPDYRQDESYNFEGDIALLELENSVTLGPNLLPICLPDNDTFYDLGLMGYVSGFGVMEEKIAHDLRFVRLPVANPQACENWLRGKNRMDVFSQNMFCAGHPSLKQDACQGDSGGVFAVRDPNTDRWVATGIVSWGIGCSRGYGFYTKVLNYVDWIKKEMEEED

[4] = biological target: T4, recombinant His-C1r-CCP2-SP (residues 376-705) (human, UniProt P00736 376-705); test: as above; conditions: both partners purified
T4 construct: complement C1r, human, CCP2-SP domains, residues 376-705 (domains as defined by UniProt P00736); also called rHIS-C1r-CCP2-SP
T4 sequence: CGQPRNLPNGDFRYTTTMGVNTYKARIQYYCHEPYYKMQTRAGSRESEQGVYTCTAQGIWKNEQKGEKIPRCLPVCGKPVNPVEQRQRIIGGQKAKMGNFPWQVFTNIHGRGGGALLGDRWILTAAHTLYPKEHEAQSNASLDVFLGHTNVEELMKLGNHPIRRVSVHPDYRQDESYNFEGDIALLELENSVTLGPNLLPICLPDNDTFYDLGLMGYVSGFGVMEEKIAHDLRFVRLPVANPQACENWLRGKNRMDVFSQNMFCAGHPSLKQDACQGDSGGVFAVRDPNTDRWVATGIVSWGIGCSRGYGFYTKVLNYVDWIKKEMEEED

[5] = biological target: T5, human C1r, full-length enzyme (human, UniProt P00736 18-705); test: SPR; Biacore T200, 25°C; borrelial protein immobilised by amine coupling; C1r as analyte, single-cycle kinetics, five-fold dilution series 1.6 to 1000 nM; HBS-T with 5 mM CaCl2; 1:1 kinetic fit; triplicate; conditions: both partners purified
T5 construct: complement C1r, human, 92 kDa, CUB1-EGF-CUB2-CCP1-CCP2-SP; bought as purified full-length enzyme; source: bought: Complement Technology (Tyler, TX), purified
T5 sequence: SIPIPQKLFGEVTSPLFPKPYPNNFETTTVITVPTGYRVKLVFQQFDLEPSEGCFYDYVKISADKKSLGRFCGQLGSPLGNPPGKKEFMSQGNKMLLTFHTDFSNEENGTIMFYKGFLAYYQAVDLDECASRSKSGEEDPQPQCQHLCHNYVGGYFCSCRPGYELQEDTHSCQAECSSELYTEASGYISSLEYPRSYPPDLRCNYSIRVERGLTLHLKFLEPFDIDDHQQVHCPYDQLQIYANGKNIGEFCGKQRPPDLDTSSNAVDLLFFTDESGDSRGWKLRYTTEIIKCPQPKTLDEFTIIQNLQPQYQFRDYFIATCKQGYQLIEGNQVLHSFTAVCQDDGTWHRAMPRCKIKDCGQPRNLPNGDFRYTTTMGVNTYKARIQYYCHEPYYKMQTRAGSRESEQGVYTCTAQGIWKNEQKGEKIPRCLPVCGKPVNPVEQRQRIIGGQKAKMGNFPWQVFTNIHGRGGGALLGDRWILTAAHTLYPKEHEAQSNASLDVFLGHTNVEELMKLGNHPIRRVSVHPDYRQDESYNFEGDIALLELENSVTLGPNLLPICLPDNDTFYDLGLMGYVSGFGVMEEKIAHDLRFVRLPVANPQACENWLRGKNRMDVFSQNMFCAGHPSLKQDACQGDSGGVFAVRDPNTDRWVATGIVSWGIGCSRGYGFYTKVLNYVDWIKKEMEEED

[6] = biological target: T6, human C1r, full-length enzyme (human, UniProt P00736 18-705); test: cell-based or functional assay
T6 sequence: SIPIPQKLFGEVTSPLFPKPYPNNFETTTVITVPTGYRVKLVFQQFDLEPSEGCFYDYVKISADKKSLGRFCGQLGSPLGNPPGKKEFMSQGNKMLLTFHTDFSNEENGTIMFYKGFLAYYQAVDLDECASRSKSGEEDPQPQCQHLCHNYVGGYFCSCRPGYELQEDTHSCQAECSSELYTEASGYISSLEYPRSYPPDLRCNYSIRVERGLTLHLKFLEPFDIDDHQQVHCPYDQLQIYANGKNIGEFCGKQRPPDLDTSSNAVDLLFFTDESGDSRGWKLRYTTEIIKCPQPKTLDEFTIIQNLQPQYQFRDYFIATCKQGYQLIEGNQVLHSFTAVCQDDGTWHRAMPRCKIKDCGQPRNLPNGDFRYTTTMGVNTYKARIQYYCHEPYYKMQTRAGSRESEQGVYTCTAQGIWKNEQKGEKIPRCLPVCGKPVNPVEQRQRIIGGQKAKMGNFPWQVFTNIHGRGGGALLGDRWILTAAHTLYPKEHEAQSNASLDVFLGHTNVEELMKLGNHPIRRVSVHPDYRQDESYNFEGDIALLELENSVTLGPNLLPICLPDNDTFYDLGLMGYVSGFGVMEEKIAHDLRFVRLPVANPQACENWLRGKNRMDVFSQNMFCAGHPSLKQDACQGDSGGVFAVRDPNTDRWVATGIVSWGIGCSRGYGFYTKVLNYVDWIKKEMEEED

[7] = biological target: T7, human C1 complex (human, UniProt P02745 23-245; P02746 28-253; P02747 29-245); test: SPR; Biacore T200, 25°C; borrelial protein immobilised by amine coupling (CMD200M chip); C1 as analyte, two-fold dilution series 0 to 150 nM, 2 min association, 3 min dissociation; HBS-T (20 mM HEPES pH 7.3, 140 mM NaCl, 0.005% Tween-20) with 5 mM CaCl2; 1:1 kinetic fit; triplicate; conditions: both partners purified
T7 construct: C1q subunit A, human; C1q subunit B, human; C1q subunit C, human; complement C1r, human, within the C1r2C1s2 heterotetramer; complement C1s, human, within the C1r2C1s2 heterotetramer; also called first component of complement; source: bought: Complement Technology (Tyler, TX), purified; copies: + + + 2 + 2

B1: BBK32_((206-348)) (residues 206-348, B. burgdorferi strain B31) (domain or fragment)
chain: SNRYQSYLEGVKYNVDSAIQTITKIYNTYTLFSTKLTQMYSTRLDNFAKAKAKEEAAKFTKEDLEKNFKTLLNYIQVSVKTAANFVYINDTHAKRKLENIEAEIKTLIAKIKEQSNLYEAYKAIVTSILLMRDSLKEVQGIID
notes: BBK32 of Borrelia burgdorferi strain B31, residues 206-348 (lacks six C-terminal residues relative to BBK32-C); The deposited model holds residues 209-348; also called BBK32-C_((206-348)); crystallization construct
Kd [1]: 3.9 nM
Kd [2]: 1.5 nM

B2: BBK32(206-348) (residues 206-348, B. burgdorferi strain B31) (domain or fragment)
chain: SNRYQSYLEGVKYNVDSAIQTITKIYNTYTLFSTKLTQMYSTRLDNFAKAKAKEEAAKFTKEDLEKNFKTLLNYIQVSVKTAANFVYINDTHAKRKLENIEAEIKTLIAKIKEQSNLYEAYKAIVTSILLMRDSLKEVQGIID
notes: BBK32, Borrelia burgdorferi strain B31, residues 206-348 (lacks six C-terminal residues relative to BBK32-C); also called BBK32-C(206-348); source: recombinant, sub-cloned into pT7HMT, purified to homogeneity
koff [3]: 2.6e-05 s⁻¹
kon [3]: 17000 M⁻¹ s⁻¹
koff [4]: 3.7e-05 s⁻¹
kon [4]: 9400 M⁻¹ s⁻¹
Kd [5]: 0.75 nM
koff [5]: 9.7e-06 s⁻¹
kon [5]: 13000 M⁻¹ s⁻¹

B3: BBK32-C (residues 206-354, B. burgdorferi strain B31) (domain or fragment)
chain: SNRYQSYLEGVKYNVDSAIQTITKIYNTYTLFSTKLTQMYSTRLDNFAKAKAKEEAAKFTKEDLEKNFKTLLNYIQVSVKTAANFVYINDTHAKRKLENIEAEIKTLIAKIKEQSNLYEAYKAIVTSILLMRDSLKEVQGIIDKNGVWY
IC50 of C3b deposition, classical pathway-specific ELISA with normal human serum [6]: 14 nM
IC50 of MAC deposition, classical pathway-specific ELISA with normal human serum [6]: 13 nM
IC50 of classical pathway hemolysis of sensitized sheep red blood cells by human serum [6]: 170 nM

B4: BBK32-C (residues 206-354, B. burgdorferi strain B31) (domain or fragment)
chain: SNRYQSYLEGVKYNVDSAIQTITKIYNTYTLFSTKLTQMYSTRLDNFAKAKAKEEAAKFTKEDLEKNFKTLLNYIQVSVKTAANFVYINDTHAKRKLENIEAEIKTLIAKIKEQSNLYEAYKAIVTSILLMRDSLKEVQGIIDKNGVWY
notes: BBK32, Borrelia burgdorferi sensu stricto strain B31, residues 206-354; also called BBK32(206-354); source: recombinant, sub-cloned into pT7HMT, purified to homogeneity
Kd [5]: 5.1 nM
koff [5]: 8.6e-05 s⁻¹
kon [5]: 17000 M⁻¹ s⁻¹

B5: BXK32-C (BBK32-C E308K-Q319K-E324Q) (domain or fragment, Borrelia burgdorferi strain B31, UniProt O50835 206-354, looked up)
chain: SNRYQSYLEGVKYNVDSAIQTITKIYNTYTLFSTKLTQMYSTRLDNFAKAKAKEEAAKFTKEDLEKNFKTLLNYIQVSVKTAANFVYINDTHAKRKLENIEAKIKTLIAKIKEKSNLYQAYKAIVTSILLMRDSLKEVQGIIDKNGVWY
notes: BBK32, Borrelia burgdorferi strain B31, residues 206-354 (the limits of BBK32-C) with three residues changed to those of B. garinii BGD19; also called BBK32-E308K-Q319K-E324Q; chimeric BBK32-C; source: recombinant, E. coli codon-optimized synthetic DNA in pT7HMT, purified to homogeneity
Kd [5]: 7.1 nM
koff [5]: 0.00016 s⁻¹
kon [5]: 22000 M⁻¹ s⁻¹

B6: BGD19-C (residues 206-354, B. garinii strain IP90) (domain or fragment)
chain: SNRYQSYLEGVKYNVDSAIKTITKIYDTYTLFLTKLTQMYSTRLDNLAKAKAKEEAAKFTKEDLEKNFKTLLNYIQVSVKTATNFVYINDTHAKRKLENIETKIKTLIAKIKEKSNLYQAYKAIVRPILLMRDSLKEVQGAIDKNGIWY
IC50 of C3b deposition, classical pathway-specific ELISA with normal human serum [6]: 32 nM
IC50 of MAC deposition, classical pathway-specific ELISA with normal human serum [6]: 35 nM
IC50 of classical pathway hemolysis of sensitized sheep red blood cells by human serum; no saturable inhibition up to 1 uM [6]: ~7.6 µM

B7: BGD19-C (residues 206-354, B. garinii strain IP90) (domain or fragment)
chain: SNRYQSYLEGVKYNVDSAIKTITKIYDTYTLFLTKLTQMYSTRLDNLAKAKAKEEAAKFTKEDLEKNFKTLLNYIQVSVKTATNFVYINDTHAKRKLENIETKIKTLIAKIKEKSNLYQAYKAIVRPILLMRDSLKEVQGAIDKNGIWY
Kd [5]: 5.3 nM
koff [5]: 8.1e-05 s⁻¹
kon [5]: 15000 M⁻¹ s⁻¹
Kd [7]: 3 nM
koff [7]: 0.00035 s⁻¹
kon [7]: 120000 M⁻¹ s⁻¹
